Our source for the protein stability index values is the supplement of paper PMC10567573.

± gives the standard deviation.

A short description of this data set: protein stability index of a GFP-peptide fusion (GPS, HEK-293T) (PSI 1-6); higher = more stable. To be noted: c terminus: a fixed tail appended.
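Note: 24-mer peptide tiles fused after GFP, lentivirally expressed, FACS-sorted into six equal bins by GFP/DsRed ratio, decoded by Illumina sequencing, PSI is the read-weighted mean bin number.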

For the sequence EKQLAKKEQSKELQMKLEKLREKE [FAM50A], the protein stability index reads like this: (treatment: DMSO) 5.34 ± 0.35; (treatment: MLN4924 1 uM, 8 h) 5.17 ± 0.39.

Where the note is “treatment: DMSO”, EKYKPFSQVPTGEVFYYSCEYNFV [CFHR2] displayed a protein stability index of 2.78 ± 1.5.

With ELAYMKKNHEEEMKEFSNQVVGQV [KRT13], the protein stability index reads like this: (treatment: DMSO) 4.7 ± 0.26; (treatment: MLN4924 1 uM, 8 h) 4.66 ± 0.14.

For the sequence ELFYRVNYIGTKNVIETCKEAGVQ [NSDHL], the protein stability index reads like this: (treatment: DMSO) 2.14 ± 0.21; (treatment: MLN4924 1 uM, 8 h) 2.08 ± 0.54.

ELGEEPQPRDEEEAELELLRQFDL [POLD4]: the protein stability index came to 5.41 ± 0.26 (treatment: DMSO) and 5.51 ± 0.3 (treatment: MLN4924 1 uM, 8 h).

Take ELIRNIYNSFHKLRDRAERIASRA [SNX8]: the protein stability index was 2.22 ± 0.75 (treatment: DMSO) and 2.17 ± 0.27 (treatment: MLN4924 1 uM, 8 h).

Consider ELKKLKNLEGNELQRHADEFLLDL [FUT8], for which the protein stability index by setting is: (treatment: DMSO) 3.61 ± 0.25; (treatment: MLN4924 1 uM, 8 h) 3.59 ± 0.3.

As to ELKRLVESRRQQILREFEELHRRL [TRIM39], the protein stability index by setting is: (treatment: DMSO) 2.44 ± 0.31; (treatment: MLN4924 1 uM, 8 h) 2.72 ± 0.38.

Turning to ELQSLMHQPKGLEEENAQLRGALQ [PBXIP1], the protein stability index reads like this: (treatment: DMSO) 4.25 ± 0.23; (treatment: MLN4924 1 uM, 8 h) 4.04 ± 0.29.

In the case of ELRTAKDSDDDDDVAVTVDRDRFM [STX1A], the protein stability index runs as follows: (treatment: DMSO) 5.37 ± 0.06; (treatment: MLN4924 1 uM, 8 h) 5.25 ± 0.14.

As for ELVALIPHSDQRLRPQRTKQYVLL [TMEM106C], the protein stability index is, setting by setting: (treatment: DMSO) 2.02 ± 0.33; (treatment: MLN4924 1 uM, 8 h) 2.17 ± 0.22.

EMGGSEGIVESIQIMKEGKATASE [NETO1]: the protein stability index is 5.58 ± 0.21 (treatment: DMSO) and 5.611 ± 0.038 (treatment: MLN4924 1 uM, 8 h).

On to EMQIENLKEELAYLKKNHEEEMNA [KRT17], for which the protein stability index amounted to 4.67 ± 0.24 (treatment: DMSO) and 4.88 ± 0.33 (treatment: MLN4924 1 uM, 8 h).

As to ENKQVVIIHHMRLQAKALQLIVTA [INTS4], the protein stability index was found to be 3.01 ± 0.56 (treatment: DMSO) and 3.03 ± 0.44 (treatment: MLN4924 1 uM, 8 h).

Sequence ENLSVPVIGALLRFNQAILVSRHD [LPCAT4] displayed a protein stability index (treatment: DMSO) of 2.43 ± 0.61 and a protein stability index (treatment: MLN4924 1 uM, 8 h) of 2.5 ± 0.34.

For the sequence EPFPSSDDSPRSALAAATAAAAAA [SPAG8], the protein stability index reads like this: (treatment: DMSO) 5.2 ± 0.16; (treatment: MLN4924 1 uM, 8 h) 5.05 ± 0.18.

For EPGNFIPLFTPQSPVTATLSDEDD [CDC25A], the protein stability index is, setting by setting: (treatment: DMSO) 5.56 ± 0.18; (treatment: MLN4924 1 uM, 8 h) 5.69 ± 0.13.

EPPPPLHNNNNNCEENEQSLPPPA [BNIP3L]: the protein stability index turned out to be 5.51 ± 0.27 (treatment: DMSO) and 5.68 ± 0.13 (treatment: MLN4924 1 uM, 8 h).

Consider EPSFAQFSQEIGLASLGASEEAVQ [TPH1], for which the protein stability index runs as follows: (treatment: DMSO) 5.17 ± 0.61; (treatment: MLN4924 1 uM, 8 h) 4.99 ± 0.37.

Consider EPSIAPTSCAGNLPSRPPPLLSPL [RSPH3], for which the protein stability index runs as follows: (treatment: DMSO) 3.72 ± 0.2; (treatment: MLN4924 1 uM, 8 h) 3.83 ± 0.14.

EQERRLSEARLSQRDLSPTAEDAE [FCHSD1]: the protein stability index reads like this: (treatment: DMSO) 5.41 ± 0.23; (treatment: MLN4924 1 uM, 8 h) 5.6 ± 0.26.

Turning to EQKAAGSASAKRVWNMTATRPKKM [FATE1], the protein stability index reads like this: (treatment: DMSO) 4.43 ± 0.16; (treatment: MLN4924 1 uM, 8 h) 4.39 ± 0.22.

Take EQLIEAISNGDFESYTKMCDPGMT [CAMK2A]: the protein stability index reads like this: (treatment: DMSO) 3.92 ± 0.28; (treatment: MLN4924 1 uM, 8 h) 3.76 ± 0.44.

For the sequence EQSSCTMTPDIHELVENIKSVLKS [FAM189A2], the protein stability index by setting is: (treatment: DMSO) 2.19 ± 0.29; (treatment: MLN4924 1 uM, 8 h) 2.4 ± 0.37.

Turning to ERIDCQGIPPSSKDKLGVWVYKNK [KLHDC2], the protein stability index reads like this: (treatment: DMSO) 3.75 ± 0.23; (treatment: MLN4924 1 uM, 8 h) 3.64 ± 0.34.

With ERILGPSHPDTSYYIRYRGAVYAD [FEM1A], the protein stability index runs as follows: (treatment: DMSO) 2.94 ± 0.2; (treatment: MLN4924 1 uM, 8 h) 2.92 ± 0.29.

Regarding ERLQAAGTDSAGPKTVPSHVFSEL [ELOA2], the protein stability index is, setting by setting: (treatment: DMSO) 4.06 ± 0.15; (treatment: MLN4924 1 uM, 8 h) 4.4 ± 0.14.

For ERTQLRLESLEDTHIMKGEDDALS [TRIB1], the protein stability index amounted to 5.27 ± 0.21 (treatment: DMSO) and 5.34 ± 0.41 (treatment: MLN4924 1 uM, 8 h).

Regarding ERVTVAKLTLENFYSNLILQHEER [STK38L], the protein stability index reads like this: (treatment: DMSO) 2.85 ± 0.28; (treatment: MLN4924 1 uM, 8 h) 2.99 ± 0.31.

Regarding ESACSSDSLDEARSSGSEGTPADT [PWWP2B], the protein stability index (treatment: DMSO) was 5.7 ± 0.11 and the protein stability index (treatment: MLN4924 1 uM, 8 h) was 5.5 ± 0.21.

Turning to ESLQELRLLLAGAEVQAKLENAEV [HES6], the protein stability index by setting is: (treatment: DMSO) 2.84 ± 0.41; (treatment: MLN4924 1 uM, 8 h) 3.15 ± 0.4.

In turn, ETPQPSPPGGSGSEPYKLLPGAVA [HNF4A] yielded a protein stability index (treatment: DMSO) of 5.06 ± 0.21 and a protein stability index (treatment: MLN4924 1 uM, 8 h) of 4.92 ± 0.11.

As for ETQLKACASFIRTRLLLQFTQPQQ [C8orf76], the protein stability index is, setting by setting: (treatment: DMSO) 2.93 ± 0.65; (treatment: MLN4924 1 uM, 8 h) 2.86 ± 0.88.

As for ETREYAPPSRGHGYRDYGHSRRHE [RBMY1A1], the protein stability index (treatment: DMSO) stood at 4.58 ± 0.35 and the protein stability index (treatment: MLN4924 1 uM, 8 h) is 4.71 ± 0.13.

For the sequence EVAEQLELERIGPQHQAGSDSLLT [CNOT7], the protein stability index reads like this: (treatment: DMSO) 4.9 ± 0.14; (treatment: MLN4924 1 uM, 8 h) 4.85 ± 0.15.

EVDVQEAGAGWWVGAAYASLRRRG [TRIM14]: the protein stability index reads like this: (treatment: DMSO) 3.4 ± 0.28; (treatment: MLN4924 1 uM, 8 h) 3.38 ± 0.4.

As for EVILGDIWKLNLQTFQWVKLPATM [KLHDC10], the protein stability index by setting is: (treatment: DMSO) 2.51 ± 0.51; (treatment: MLN4924 1 uM, 8 h) 2.21 ± 0.3.
